Experimental data: the nanobody polyreactivity screen of Harvey et al. (2022)

Assay: yeast display, Sf9 membrane polyspecificity reagent, FACS + sequencing; frameworks hold sequencing errors
How it was run: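 Synthetic nanobody libraries on Saccharomyces cerevisiae BJ5465 were galactose-induced for 36–48 hours, stained 1 hour at 4 °C with 10% biotinylated, detergent-solubilized Sf9 membrane reagent and enriched on streptavidin microbeads. FACS then separated cells into low and high (top ~1%) gates by anti-HA (expression) and streptavidin (reagent binding) fluorescence. Genes were colony-PCR amplified, MiSeq 2 × 250 sequenced and CDR-length filtered. A clone's polyreactivity label is that of its gate of origin.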

Q: With “QVQLVESGGGLVQAGGSLRLSCAASGSTFEVNAMGWYRQAPGKERELVASITDGGITNYADSVKVRFTISRDNAKNTVYLQMNSLKPEDTAVYYCAAVGWYYSYYYFWGGYWGQGTQVTVSS” as the sequence, how does the “polyreactivity (PSR sort gate)” value read?
A: high polyreactivity

Q: For “QVQLVESGGGLVQAGGSLRLSCAASGSTFEWNAMGWYRQAPGKERELVAAISGTGGNTYYADSVKGRFTISRYNAKNTVYLQMNSLKPEDTAVYYCNTDYGEYSSWDLQWWYIPYDYWGQGTQVTVSS”, which “polyreactivity (PSR sort gate)” value is on record?
A: low polyreactivity

Q: For “QVQLVESGGGLVQAGGSLRLSCAASGSTFEYNAMRWYRQAPGKERELVAAITWSVGSTYYADSVKGRFTISRDNAKNSVSIQMNSLKPEDTAVDYCARVPSAFARWHTYDYWGQGTQVTVSS”, which “polyreactivity (PSR sort gate)” value is on record?
A: low polyreactivity

Q: For “QVQLVESGGGLVQAGGSLRLSCAASGSTFEYYAMGWYRQAPGKERELVAAISTSGGSTYYADSVKGRFTISRDNAKNTVYLQMNSLKPEDTAVYYCNRGRRYSHKYDYWGQGTQVTVSS”, which “polyreactivity (PSR sort gate)” value is on record?
A: high polyreactivity

Q: Which “polyreactivity (PSR sort gate)” value does the source give for “QVQLVESGGGLVQAGGSLRLSCAASGSTFEYYAMGWYRQAPGKERELVAAITRRGGSTYYADSVKGRFTISRDNAKNTVYLQMNSLKPEDTAVYYCAAVPTQKSPRTHDYWGQGTQVTVSS” here?
A: low polyreactivity

Q: With “QVQLVESGGGLVQAGGSLRLSCAASGSTFEYYAMGWYRQAPGKERELVATITFGGGSTYYADSVKGRFTISRDNAKNTVYLQMNSLKPEDTAVYYCAADSGYLGIYGDEYSWGQGTQVTVSS” as the sequence, how does the “polyreactivity (PSR sort gate)” value read?
A: low polyreactivity

Q: With “QVQLVESGGGLVQAGGSLRLSCAASGSTFEYYAMGWYRQAPGKERELVATMSIDGRTNYADSVKGRFTISRDNAKNTVYLQMNSLKPEDTAVYYCAARPYWRHRYDYWGQGTQVTVSS” as the sequence, how does the “polyreactivity (PSR sort gate)” value read?
A: low polyreactivity

Q: For “QVQLVESGGGLVQAGGSLRLSCAASGSTFFANAMGWFRQAPGKAREFVAVITWGGSTYYADSVKGRFTISRDNAKNSVYLQMNSLKPEDTAVYYCNADYQPPGILYHWWRYYRGDYWGQGTQVTVSS”, which “polyreactivity (PSR sort gate)” value is on record?
A: low polyreactivity

Q: Which “polyreactivity (PSR sort gate)” value does the source give for “QVQLVESGGGLVQAGGSLRLSCAASGSTFFCYAMGWYRQAPGKERELVAAISRSGDRTYYADSVKGRFTISRDNAKNTVYLQMKSLKPEDTAVYYCAAKGFKPSDWGQGTQVTVSS” here?
A: high polyreactivity

Q: Which “polyreactivity (PSR sort gate)” value does the source give for “QVQLVESGGGLVQAGGSLRLSCAASGSTFFDYAMGWYRQAPGKERELVAAISRSGDTNYADSVKGRFTISRDNAKNTVYLQMNSLKPEDTAVYYCAKDWAYRRHWVGFYYWGQGTQVTVSS” here?
A: low polyreactivity

Q: Which “polyreactivity (PSR sort gate)” value does the source give for “QVQLVESGGGLVQAGGSLRLSCAASGSTFFGNTMGWYRKAPGKERELVATITRRGGSTYYADSVKGRFTISRDNAKNTVYLQMNSLKPEDTAVYYCAKRGPYTKYDYWGQGTQVTVSS” here?
A: low polyreactivity

Q: With “QVQLVESGGGLVQAGGSLRLSCAASGSTFFGYAMGWYRQAPGKERELVAAIRYNGGRTYYADSVKGRFTISRDNAKNTVYLQMNSLKPEDTAVYYCAAYISYSRTYYYWGQGTQVTVSS” as the sequence, how does the “polyreactivity (PSR sort gate)” value read?
A: low polyreactivity

Q: With “QVQLVESGGGLVQAGGSLRLSCAASGSTFFGYTMGWYRQARGKERELVAAITRRGGSTYYADSVKGRFTISRDNAKNTVYLQLNSLKPEDTAVYYCNAVSKSTNYAGRYDYWGQATQVTVSS” as the sequence, how does the “polyreactivity (PSR sort gate)” value read?
A: high polyreactivity

Q: With “QVQLVESGGGLVQAGGSLRLSCAASGSTFFIKAMGWYRQAPGKERELVAAITSTDSTTYADSVKGRFTISRDNAKNTVYLQMNSLKPEDTAVYYCAKETIGQDPVSGAWARHEYDYWGQGTQVTVSS” as the sequence, how does the “polyreactivity (PSR sort gate)” value read?
A: low polyreactivity

Q: Which “polyreactivity (PSR sort gate)” value does the source give for “QVQLVESGGGLVQAGGSLRLSCAASGSTFFINAMGWYRQEHGTEREFVASISYSGGSTYYADSVKGRFTISRDNAKNTVYLQMNSLKPEDTAVYYCNADVRVFLHYSKYNYWGQGTQVTVSS” here?
A: low polyreactivity

Q: Which “polyreactivity (PSR sort gate)” value does the source give for “QVQLVESGGGLVQAGGSLRLSCAASGSTFFIYAMGWYRQAPGKERELVAAISWRDGSTYYADSVKGRFTISRDNAKNTVYLQMNSLKPEDTAVYYCAADYLLPWGIELDYWGQGTQVTVSS” here?
A: high polyreactivity

Q: For “QVQLVESGGGLVQAGGSLRLSCAASGSTFFKNTMGWYRQAPGKEREFVAAIRWSTSRTYYADSVKGRFTISRDNAKYTVYLQMTSLKPEDTAVYYCNAGTSLSRRYPEDYYWGQGTQVTVSS”, which “polyreactivity (PSR sort gate)” value is on record?
A: high polyreactivity

Q: For “QVQLVESGGGLVQAGGSLRLSCAASGSTFFLKAMGWYRQSPGKERELVAAISYSDSGTNYADSVKGRFTISRDNAKNTVYLQMNSLKPEDTAVYYCATAVRPWYVTSGNYWGQGTQVTVSS”, which “polyreactivity (PSR sort gate)” value is on record?
A: low polyreactivity

Q: Which “polyreactivity (PSR sort gate)” value does the source give for “QVQLVESGGGLVQAGGSLRLSCAASGSTFFLYAMGWYRQAAGKERELVAAISVSGGSTRYADSVNGRFTISRDHAKNTVYLQMNSLKPEDTAVYYCAAASRLEYSHATLYYWGQGTQVTVSS” here?
A: high polyreactivity

Q: With “QVQLVESGGGLVQAGGSLRLSCAASGSTFFLYAMGWYRQAPGKEREFVAAISIGGSTNYADSVKGRFTISRDNAKNTVYLQMNSLKPEDTAVYYCAKLDLQYIQYLGYDYWGQGTQVTVSS” as the sequence, how does the “polyreactivity (PSR sort gate)” value read?
A: low polyreactivity

Q: For “QVQLVESGGGLVQAGGSLRLSCAASGSTFFPYAMGWYRQAPGKERELVAAIRWSGGRTYYADSVKGRFTISRDNAKNTVYLQMNSLKPEDTAVYYCAADKYLDYDYWGQGTQVTVSS”, which “polyreactivity (PSR sort gate)” value is on record?
A: high polyreactivity

Q: Which “polyreactivity (PSR sort gate)” value does the source give for “QVQLVESGGGLVQAGGSLRLSCAASGSTFFPYAMGWYRQAPGKVRELVAAIRWSGGRTYYADSVKGRFTISRDNAKNTVFLQMNSLNPEDTAVYYCAAYKYLDYDYGGQGTQVTVSS” here?
A: high polyreactivity
